Key:
Experiment in all cases: cell-based or functional assay
HIPK3 (h) (human) = HIPK3 (h) (human) (UniProt Q9H422)
CDK5/p25 (h) (human) = CDK5/p25 (h) (human) (UniProt Q00535)
PKCθ (h) (human) = PKCθ (h) (human) (UniProt Q04759)
Rse (h) (human) = target: T1, Rse (h) (human) (UniProt Q06418)
T1 sequence (looked up): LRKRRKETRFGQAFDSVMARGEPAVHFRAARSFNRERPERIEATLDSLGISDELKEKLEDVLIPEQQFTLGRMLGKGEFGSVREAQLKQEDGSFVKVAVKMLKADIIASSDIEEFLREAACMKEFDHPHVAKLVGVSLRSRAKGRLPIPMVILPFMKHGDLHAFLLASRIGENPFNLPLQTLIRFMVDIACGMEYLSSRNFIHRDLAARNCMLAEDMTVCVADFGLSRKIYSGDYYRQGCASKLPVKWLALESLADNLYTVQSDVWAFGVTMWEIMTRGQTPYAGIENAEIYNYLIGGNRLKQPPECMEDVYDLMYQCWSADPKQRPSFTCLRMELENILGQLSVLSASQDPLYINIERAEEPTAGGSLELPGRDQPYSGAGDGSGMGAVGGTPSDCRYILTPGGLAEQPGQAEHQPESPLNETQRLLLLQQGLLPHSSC

DMPK (h) (human) = DMPK (h) (human) (UniProt Q09013)
PKCε (h) (human) = PKCε (h) (human) (UniProt Q02156)
[1] = target: Calcium/Calmodulin-Dependent Protein Kinase I (human) (UniProt Q14012)
Syk (h) (human) = Syk (h) (human) (UniProt P43405)
CHK1 (h) (human) = target: T2, CHK1 (h) (human) (UniProt O14757)
T2 sequence (looked up): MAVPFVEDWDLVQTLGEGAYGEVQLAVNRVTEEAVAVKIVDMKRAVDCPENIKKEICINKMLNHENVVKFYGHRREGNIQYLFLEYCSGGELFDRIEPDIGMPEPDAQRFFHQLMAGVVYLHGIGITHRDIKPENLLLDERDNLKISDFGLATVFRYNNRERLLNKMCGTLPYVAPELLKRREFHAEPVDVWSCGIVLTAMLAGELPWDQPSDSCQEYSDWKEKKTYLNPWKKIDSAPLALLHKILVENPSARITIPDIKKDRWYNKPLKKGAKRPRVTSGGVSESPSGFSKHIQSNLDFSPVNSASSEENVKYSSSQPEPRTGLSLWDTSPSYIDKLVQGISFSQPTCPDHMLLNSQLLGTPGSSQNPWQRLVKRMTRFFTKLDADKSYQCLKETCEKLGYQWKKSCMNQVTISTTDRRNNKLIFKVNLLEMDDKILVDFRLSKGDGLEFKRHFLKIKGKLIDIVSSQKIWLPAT

Axl (h) (human) = target: T3, Axl (h) (human) (UniProt P30530)
T3 sequence (looked up): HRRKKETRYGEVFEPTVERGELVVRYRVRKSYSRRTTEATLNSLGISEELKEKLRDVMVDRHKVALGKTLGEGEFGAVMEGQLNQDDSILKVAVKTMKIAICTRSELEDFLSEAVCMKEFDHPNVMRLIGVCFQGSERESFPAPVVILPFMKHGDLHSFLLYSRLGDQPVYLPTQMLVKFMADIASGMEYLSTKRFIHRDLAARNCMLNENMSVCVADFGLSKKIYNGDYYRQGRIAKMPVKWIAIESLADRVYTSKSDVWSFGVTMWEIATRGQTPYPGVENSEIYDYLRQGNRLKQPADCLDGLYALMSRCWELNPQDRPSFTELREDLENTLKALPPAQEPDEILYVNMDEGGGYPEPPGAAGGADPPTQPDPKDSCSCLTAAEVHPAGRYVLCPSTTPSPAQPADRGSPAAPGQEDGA

DDR2 (h) (human) = target: T4, DDR2 (h) (human) (UniProt Q16832)
T4 sequence (looked up): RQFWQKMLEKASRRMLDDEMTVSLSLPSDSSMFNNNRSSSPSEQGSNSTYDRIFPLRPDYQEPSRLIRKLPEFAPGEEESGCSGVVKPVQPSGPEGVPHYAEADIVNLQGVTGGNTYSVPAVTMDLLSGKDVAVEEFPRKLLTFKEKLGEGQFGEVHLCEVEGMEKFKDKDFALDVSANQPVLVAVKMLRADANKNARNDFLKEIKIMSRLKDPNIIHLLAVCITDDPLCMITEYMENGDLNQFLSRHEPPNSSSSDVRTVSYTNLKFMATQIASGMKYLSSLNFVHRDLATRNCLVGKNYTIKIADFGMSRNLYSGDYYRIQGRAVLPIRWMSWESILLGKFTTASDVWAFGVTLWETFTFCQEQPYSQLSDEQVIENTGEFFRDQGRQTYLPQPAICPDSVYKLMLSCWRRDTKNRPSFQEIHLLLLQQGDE

Yes (h) (human) = Yes (h) (human) (UniProt P07947)
ASK1 (h) (human) = ASK1 (h) (human) (UniProt Q99683)
TAO1 (h) (human) = target: T5, TAO1 (h) (human) (UniProt Q7L7X3)
T5 sequence (looked up): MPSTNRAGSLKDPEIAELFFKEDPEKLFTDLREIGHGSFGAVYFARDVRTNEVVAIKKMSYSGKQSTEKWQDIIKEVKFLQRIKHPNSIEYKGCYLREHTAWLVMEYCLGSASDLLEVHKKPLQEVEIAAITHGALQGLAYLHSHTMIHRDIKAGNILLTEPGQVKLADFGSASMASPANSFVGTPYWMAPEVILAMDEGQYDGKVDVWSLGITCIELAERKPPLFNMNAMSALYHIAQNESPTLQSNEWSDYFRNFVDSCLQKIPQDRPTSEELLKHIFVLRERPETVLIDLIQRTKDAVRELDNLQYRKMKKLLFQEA

BTK(R28H) (h) (human) = BTK(R28H) (h) (human) (UniProt Q06187)
ROCK-II (h) (human) = ROCK-II (h) (human) (UniProt O75116)

% activity at 100 µM (HIPK3 (h) (human)): 93%
% activity at 100 µM (CDK5/p25 (h) (human)): 89%
% activity at 100 µM (PKCθ (h) (human)): 88%
% activity at 100 µM (Rse (h) (human)): 88%
% activity at 100 µM (DMPK (h) (human)): 59%
% activity at 100 µM (PKCε (h) (human)): 79%
% activity at 100 µM [1]: 1%
% activity at 100 µM (Syk (h) (human)): 24%
% activity at 100 µM (CHK1 (h) (human)): 91%
% activity at 100 µM (Axl (h) (human)): 52%
% activity at 100 µM (DDR2 (h) (human)): 94%
% activity at 100 µM (Yes (h) (human)): 67%
% activity at 100 µM (ASK1 (h) (human)): 80%
% activity at 100 µM (TAO1 (h) (human)): 82%
% activity at 100 µM (BTK(R28H) (h) (human)): 74%
% activity at 100 µM (ROCK-II (h) (human)): 74%
Substance: MMI-0300 (peptide)

Reference: US20160136234A1
